Here are results for 30 sequences from the supplement of paper PMC9170038.

For the data set, the system named is MS2 coat protein. Kind of data set: apparent KD of MS2 coat protein; designed switch direction (-1 OFF switch, 1 ON switch): -1; higher = weaker reporter binding. In short, it runs like this:
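Designed RNA switches were transcribed on Illumina chips by stalled E. coli RNA polymerase and titrated with SNAP-549-labelled MS2 coat protein from 0.7 or 1.5 nM, doubling to 3 µM. Step length ran from 0.8–1.5 h at the lowest concentration to 10–20 min at the highest. The apparent KD is the median over clusters for each design, from curve-fitted normalised cluster fluorescence.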

The mark [1] stands for this setting: input ligand: microRNA oligo, concentration not stated.
Where [2] appears, read: Eterna round: R95, input ligand: microRNA oligo, concentration not stated.

Take “GCGCACCUACCAAAAGGUAGGCUAACAUGAGGAUCACCCAUGUAGGAUAUCGAUUGCUUUGCAGUCGAGAAGGACGUGAUGCGC [JL ENG3 3.80 Mod 19] (Eterna round: R96, puzzle: Exclusion NG 3)”: the “apparent KD of MS2 coat protein” value (input ligand: FMN 200 uM) turned out to be 25.9 nM, the “apparent KD of MS2 coat protein” value under setting [1] amounted to 17.2 nM and the “apparent KD of MS2 coat protein” value (input ligand: none) stood at 23.3 nM.

Take “GCGCACCUACCAAAAGGUAGGUCCACAUGAGGAUCACCCAUGUAGGAUAUCGAUUGCUUUGCAGUCGAGAAGGACGUGAUGCGC [JL ENG3 3.80 Mod 16] (Eterna round: R96, puzzle: Exclusion NG 3)”: the “apparent KD of MS2 coat protein” value by setting is: (input ligand: FMN 200 uM) 51.6 nM; under setting [1], 27.3 nM; (input ligand: none) 32.3 nM.

On to “GCGCCAUCGUGAGAUGGCGUAACUACAUGAGGAUCACCCAUGUAGGAUAUCGAUUGCUUUGCAGUCGAGAAGGGCAAGGGAUAU [JL ENG3 3.87] (Eterna round: R96, puzzle: Exclusion NG 3)”, for which the “apparent KD of MS2 coat protein” value is, setting by setting: (input ligand: FMN 200 uM) 15.3 nM; under setting [1], 13.5 nM; (input ligand: none) 16.9 nM.

As for “GCGCCAUCGUGAGAUGGCGUAACUACAUGAGGAUCACCCAUGUAGGAUAUCGAUUGCUUUGCAGUCGAGAAGGGCGAGGGAUUU [JL ENG3 3.89] (Eterna round: R96, puzzle: Exclusion NG 3)”, the “apparent KD of MS2 coat protein” value (input ligand: FMN 200 uM) was 18.1 nM, the “apparent KD of MS2 coat protein” value under setting [1] turned out to be 13.2 nM and the “apparent KD of MS2 coat protein” value (input ligand: none) amounted to 17.6 nM.

For the sequence “GCGCCAUCGUGAGAUGGCGUAAGUACAUGAGGAUCACCCAUGUAGGAUAUCGAUUGCUUUGCAGUCGAGAAGGGCGUGAUAAGU [JL ENG3 3.81] (Eterna round: R96, puzzle: Exclusion NG 3)”, the “apparent KD of MS2 coat protein” value is 97.3 nM (input ligand: FMN 200 uM), 64.1 nM under setting [1] and 76.9 nM (input ligand: none).

Take “GCGCCAUCGUGAGAUGGCGUAAUUACAUGAGGAUCACCCAUGUAGGAUAUCGAUUGCUUUGCAGUCGAGAAGGGCAUGAUAAGU [JL ENG3 3.79] (Eterna round: R96, puzzle: Exclusion NG 3)”: the “apparent KD of MS2 coat protein” value (input ligand: FMN 200 uM) amounted to 49.6 nM, the “apparent KD of MS2 coat protein” value under setting [1] stood at 34.6 nM and the “apparent KD of MS2 coat protein” value (input ligand: none) is 43.3 nM.

With “GCGCCAUCGUGAGAUGGCGUACCGACAUGAGGAUCACCCAUGUAGGAUAUCGAUUGCUUUGCAGUCGAGAAGGGCAUGAUAAGU [JL ENG3 3.77] (Eterna round: R96, puzzle: Exclusion NG 3)”, the “apparent KD of MS2 coat protein” value was determined as 20.9 nM (input ligand: FMN 200 uM), 13.4 nM under setting [1] and 21.4 nM (input ligand: none).

On to “GCGCGAAGCUAGGAUAUGGGAGCGUCUUCGCUCCCAGAAGGAGCCACAUGAGGAUCACCCAUGUGGUGAUCCUG [eternacac ex6r4 sub14] (Eterna round: R97, puzzle: Exclusion 6)”, for which the “apparent KD of MS2 coat protein” value by setting is: (input ligand: FMN 200 uM) 17 nM; (input ligand: none) 16.5 nM.

For “GCGGAAAACUUAGGAUAUCAGGGCUGUACAUGAGGAUCACCCAUGUGAUAGCUCUAACACGGUCCUGAGAAGGGAGAGCCCGGA [Biorenen] (Eterna round: R96, puzzle: Exclusion NG 2)”, the “apparent KD of MS2 coat protein” value reads like this: (input ligand: FMN 200 uM) 109 nM; under setting [1], 49.7 nM; (input ligand: none) 73 nM.

Take “GCGGACAAGAUGGAGACAUCAGAGACAUGAGGAUCACCCAUGUAGGAUAUCGAUUCGAAACGAAUCGAGAAGGGCAUAGUCCGC [JL denovo 2] (Eterna round: R96, puzzle: Exclusion NG 3)”: the “apparent KD of MS2 coat protein” value (input ligand: FMN 200 uM) turned out to be 16.8 nM, the “apparent KD of MS2 coat protein” value under setting [1] was 13.3 nM and the “apparent KD of MS2 coat protein” value (input ligand: none) was 19.2 nM.

Turning to “GCGGAGUAUGUAGGAUAUCGGUCAGUUUCUGAUCGAGAAGGACAUGAGGAUCACCCAUGUAAAUUCCUCGCUUUGUGAGGCCGC [JL ENG1 3.65] (Eterna round: R96, puzzle: Exclusion NG 1)”, the “apparent KD of MS2 coat protein” value runs as follows: (input ligand: FMN 200 uM) 21.6 nM; under setting [1], 12.8 nM; (input ligand: none) 17.1 nM.

On to “GCGGGCUUUUAGGUUCUUAACAUGAGGAUCACCCAUGUGCUCGUCUUGCCGGCCGGCGGGCCGCCGGCCGGGCUUGU (Eterna round: R97, puzzle: Sensor, turn-off variant 1)”, for which the “apparent KD of MS2 coat protein” value runs as follows: (input ligand: FMN 200 uM) 66.4 nM; (input ligand: none) 68.2 nM.

With “GCGUACUGAGGAUAUACAUGAGGAUCACCCAUGUGACACAGCAUUUAUUGAUAAAUUUGUAGAAGGCAGUAGGC [JR_Ex3_Sub059] (Eterna round: R97, puzzle: Exclusion 3)”, the “apparent KD of MS2 coat protein” value (input ligand: FMN 200 uM) worked out at 144 nM and the “apparent KD of MS2 coat protein” value (input ligand: none) was 25 nM.

For “GCGUACUGAGGAUAUACAUGAGGAUCACCCAUGUGACUAAGAUUUUAGUGAUGAUUUUGUAGAAGGCAGUAUGC [JR_Ex3_Sub061] (Eterna round: R97, puzzle: Exclusion 3)”, the “apparent KD of MS2 coat protein” value is 344 nM (input ligand: FMN 200 uM) and 91.4 nM (input ligand: none).

As to “GCGUAUGAGCAGGAUAUCCGACGGGAAUCCAAAGGAGAAGGGCUCACAUGAGGAUCACCCAUGUGGUCCUAAAC [Vequat] (puzzle: Exclusion 6)”, the “apparent KD of MS2 coat protein” value under setting [2] is 19.4 nM.

For the sequence “GCGUCGAGUGUGAGGAUAUGCUGGUCCUUGGAUCAGCAGAAGGCACAUGAGGAUCACCCAUGUGAAUACGAUGC [JL bmx4 3.14] (puzzle: Brourd's mod of Exclusion 4)”, the “apparent KD of MS2 coat protein” value under setting [2] was 21.2 nM.

Turning to “GCUAGAGCAGGAUAUUUAAAUCCUCACAUGAGGAUCACCCAUGUAGUCGAAAGACUAAGAAGAGAAGGGCUCUAGC [Omei Ex5 E20] (Eterna round: R97, puzzle: Exclusion 5)”, the “apparent KD of MS2 coat protein” value reads like this: (input ligand: FMN 200 uM) 951 nM; (input ligand: none) 230 nM.

Consider “GCUAGAGCAGGAUAUUUAGAUCCUCACAUGAGGAUCACCCAUGUGGCCGAAAGGCUAAGAAGAGAAGGGCUCUAGC [Omei Ex5 E22] (Eterna round: R97, puzzle: Exclusion 5)”, for which the “apparent KD of MS2 coat protein” value (input ligand: FMN 200 uM) came to 199 nM and the “apparent KD of MS2 coat protein” value (input ligand: none) amounted to 789 nM.

With “GCUAGGAAUGUCAGGAUAUGCUGUUCCUUGGAACAGCAGAAGGGACAUGAGGAUCACCCAUGUGCUAACCUAGC [Mat - Exclusion 4 - JL Mod - D5] (Eterna round: R97, puzzle: Brourd's mod of Exclusion 4)”, the “apparent KD of MS2 coat protein” value is, setting by setting: (input ligand: FMN 200 uM) 99.2 nM; (input ligand: none) 24.4 nM.

Regarding “GCUCGCGGGCAAGGAUAUCCCACGCUGUUCUGGCCCGUGUCUGUUACAUGAGGAUCACCCAUGUGGGAGAAGGUGCACCAGGGC [Design 45] (Eterna round: R96, puzzle: Exclusion NG 2)”, the “apparent KD of MS2 coat protein” value reads like this: (input ligand: FMN 200 uM) 115 nM; under setting [1], 26.8 nM; (input ligand: none) 44.1 nM.

As for “GCUCUGUGAGGAUAUAUAACGCAUUGGAUAGUGAAACUUAGACAUGAGGAUCACCCAUGUAGAAGGUACGGUAG [Eternabot (L2) Solution 76] (Eterna round: R97, puzzle: Exclusion 2)”, the “apparent KD of MS2 coat protein” value is, setting by setting: (input ligand: FMN 200 uM) 77.8 nM; (input ligand: none) 99 nM.

As for “GCUGAUCGGCUAGGAUAUACAUUGAUCCUAGGAGGCUAAGCCUCAAAGACAUGAGGAUCACCCAUGUAGAAGGAGCAGCAGUAA [Armaonve] (Eterna round: R96, puzzle: Exclusion NG 2)”, the “apparent KD of MS2 coat protein” value is, setting by setting: (input ligand: FMN 200 uM) 103 nM; under setting [1], 23.3 nM; (input ligand: none) 39.4 nM.

Regarding “GCUGCAAAUGUAGGAUAUCUGCACGAUUAGUGCAGAGAAGGACAUGAGGAUCACCCAUGUAGAUCAGCAGCAAUUAAUUUAAUU [ENG1/5-A1] (Eterna round: R96, puzzle: Exclusion NG 1)”, the “apparent KD of MS2 coat protein” value was 413 nM (input ligand: FMN 200 uM), 42.1 nM under setting [1] and 41.5 nM (input ligand: none).

As to “GCUGCGCGAGGAUAUGCGGUUCGCGCUGUGGCCCGUGGCGCACAUGAGGAUCACCCAUGUAGAAGGCGUGCGGG [Apr-15 SS2-57] (puzzle: Exclusion 2)”, the “apparent KD of MS2 coat protein” value under setting [2] is 9.52 nM.

“GCUGGAAGAGGAUAUACAUAACGUGCGUCAGCACGAGGCCUACAUGAGGAUCACCCAUGUAGAAGGCUUCCAGC [EX2 #77] (Eterna round: R97, puzzle: Exclusion 2)”: the “apparent KD of MS2 coat protein” value is, setting by setting: (input ligand: FMN 200 uM) 27.9 nM; (input ligand: none) 15.5 nM.

On to “GCUGGACGAGGAUAUGCAAUCGUGCUUCGGCACGUAAGGUCACAUGAGGAUCACCCAUGUAGAAGGUGUCCAGC [E2/4-B2] (Eterna round: R97, puzzle: Exclusion 2)”, for which the “apparent KD of MS2 coat protein” value is 31.1 nM (input ligand: FMN 200 uM) and 20.5 nM (input ligand: none).

With “GCUGGUCGAGGAUAUACAUGAGGAUCACCCAUGUGGUCACGUGACUUCGGUCACGAAUGUAGAAGGCGACCAGC [E3/3-A4] (Eterna round: R97, puzzle: Exclusion 3)”, the “apparent KD of MS2 coat protein” value by setting is: (input ligand: FMN 200 uM) 65.8 nM; (input ligand: none) 610 nM.

For the sequence “GCUUAACAUGUAGGAUAUGCGUGGCGAAGCUAUGCAGAAGGACAUGAGGAUCACCCAUGUUUUAGCGUCUGCGUACAGAUGCGU [JL ENG1 1.42] (Eterna round: R96, puzzle: Exclusion NG 1)”, the “apparent KD of MS2 coat protein” value runs as follows: (input ligand: FMN 200 uM) 178 nM; under setting [1], 19.8 nM; (input ligand: none) 22.4 nM.

Consider “GCUUAGGAAGGAUAUACAUGAGGAUCACCCAUGUUGACGCGGUAGGGCCCGGUAGCACGUAGAAGGUCUAUAGC [Eternabot (L2) Solution 46] (Eterna round: R97, puzzle: Exclusion 3)”, for which the “apparent KD of MS2 coat protein” value (input ligand: FMN 200 uM) is 28.5 nM and the “apparent KD of MS2 coat protein” value (input ligand: none) was determined as 19.4 nM.

“GCUUGUGGGCAAGGAUAUCCUGCGCUGUUCUGGUUCGUGUCUGUCACAUGAGGAUCACCCAUGUGGGAGAAGGUGCCUUUGGCG [Design 65] (Eterna round: R96, puzzle: Exclusion NG 2)”: the “apparent KD of MS2 coat protein” value came out at 12.5 nM (input ligand: FMN 200 uM), 10.5 nM under setting [1] and 13.2 nM (input ligand: none).
